Biological target: precursor of the polypeptide that induces IFN-γ production in immunocompetent cells (human)

conversion of the precursor into the active polypeptide; IFN-γ content (IU/ml) induced in KG-1 cells by the reaction mixture, with Western blot time course: 4000 IU/ml
Substance: interleukin-1β converting enzyme (from UniProt P29466)

— patent US5891663
